Reference: the supplement of paper PMC10567573

B1: ACSBG2 (parent)
chain: FAQADALKGTLVSTLKEVKPTVFI

Variants of: B1
Assay: protein stability index of a GFP-peptide fusion (GPS, HEK-293T) (PSI 1-6); higher = more stable
Details: c terminus: a fixed tail appended
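Note: lentivirally expressed fusions sorted by FACS into six bins by GFP to DsRed ratio, PSI derived from sequencing read proportions per bin multiplied by bin number.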

Protein stability index of substitutions, site by site:
F1: A 2.26; C 1.3; D 2.43; E 3.21; G 2.46; H 1.98; I 2.25; K 2.25; L 2; M 2.14; N 2.59; P 2.31; Q 3.73; R 1.83; S 2; T 2.33; V 1.54; W 1.46; Y 1.96
A2: C 1.85; D 2.11; E 2.05; F 2.79; G 2.13; H 2.08; I 1.22; K 2.49; L 2.46; M 1.79; N 1.45; P 1.48; Q 1.64; R 1.42; S 1.76; T 1.56
Q3: A 1.86; C 1.4; D 1.36; E 1.74; F 3.71; G 3.16; I 4.29; K 2.06; L 2.44; M 3.51; N 3.49; R 2.92; S 1.28; T 1.8; V 3.21; W 2.13; Y 1.45
A4: C 2.52; D 2.74; E 2.77; F 2.18; G 2.44; H 2.31; I 1.66; K 2.03; L 1.69; M 2.05; N 2.14; P 3.08; Q 1.44; R 2.19; S 1.69; T 1.94; V 1.48; Y 1.52
D5: A 3.35; C 1.35; E 1.26; F 3.26; H 1.3; I 2.7; K 1.69; M 2.98; N 1.9; P 1.9; Q 2.4; R 1.55; S 2.67; T 2.12; V 2.08; Y 1.44
A6: C 1.28; D 1.71; E 1.95; F 2.84; G 1.57; H 1.61; I 1.34; K 2.23; M 1.9; N 1.58; P 1.69; Q 1.54; R 1.67; S 2.08; T 2.21; V 2.58; W 3.31; Y 3.07
L7: A 2.1; C 1.52; D 2.12; E 2.5; F 3.08; G 1.3; H 2.16; I 1.86; K 2.37; M 2.73; N 1.73; P 2.05; Q 2.11; R 2.07; S 1.67; T 2.02; V 1.91
K8: A 2.12; C 1.85; D 1.9; E 1.41; F 2.34; G 2.31; H 2.74; M 1.22; N 1.59; P 1.4; Q 2.39; R 1.8; S 1.71; T 3.3; Y 3
G9: A 2.24; C 2.73; D 1.59; E 1.5; F 2.24; H 1.55; I 4.73; K 2.32; L 2.72; M 2.03; N 1.27; P 2.01; Q 2.52; R 2.76; S 2.84; T 1.38; V 2.61; W 3.93; Y 1.78
T10: A 2.04; C 1.81; D 2.07; E 1.65; F 2.23; G 1.46; H 2.91; I 2.96; K 1.98; M 2.76; N 1.61; P 1.14; Q 1.79; R 2.62; S 1.55; V 2.24; W 2.36; Y 3.48
L11: A 1.88; C 1.72; D 2.02; E 2.88; F 1.7; G 1.51; H 1.72; I 2.55; K 1.67; M 2.41; N 2.1; P 1.84; Q 2.88; R 2.13; S 1.61; T 2.78; V 2.08
V12: A 1.64; C 1.76; D 1.81; E 1.89; G 1.95; H 2.12; I 2.26; K 3.87; L 1.25; M 1.66; N 1.6; P 1.85; Q 1.52; R 2.08; S 1.34; T 1.63
S13: A 2.1; C 1.93; D 1.85; E 1.27; F 2.53; G 1.04; H 1.84; I 2.4; K 3.44; L 2.05; M 3.57; N 2.01; P 1.41; Q 1.39; R 1.46; T 2.04; V 4.44; Y 3.19
T14: A 1.8; D 1.88; E 1.26; F 2.64; H 2.27; I 2.22; K 2.03; L 1.51; M 1.32; N 2.26; P 1.23; Q 1.95; S 1.08; V 2.05; Y 3.04
L15: A 2.51; D 2.19; E 2.39; F 1.77; G 1.4; H 1.93; K 1.8; M 1.6; N 1.77; P 2; Q 2.02; R 2.1; S 1.96; T 1.97; V 1.06; W 1.66; Y 1.78
K16: A 1.97; C 2.34; D 1.65; E 2.38; F 2.41; H 2.75; P 2.41; Q 1.56; R 1.45; S 2.25; T 3.25; V 2.8; W 2.4
E17: A 1.03; C 2.06; D 1.48; F 2.07; G 1.95; H 3.49; I 1.86; K 1.45; L 2.51; M 2.29; N 3.2; P 1.83; Q 1.73; R 1.99; S 1.81; T 3.12; V 2.23
V18: A 2.63; C 3.06; D 1.68; E 5.23; G 1.79; H 1.28; I 2.48; K 1.92; L 1.04; M 1.44; N 2.43; P 1.74; Q 2.04; R 1.89; S 1.98; T 1.26; W 3.71
K19: A 2.49; C 2.65; D 2.26; E 1.48; F 3.16; G 3.46; H 1.04; M 3.1; N 1.48; P 2.84; Q 2.08; R 1.02; S 2.45; T 2.53; W 1.99; Y 2.36
P20: D 1.51; F 2.4; G 2.47; K 1.25; L 3.23; N 2.42; Q 2.13; R 2.28; S 2.9; V 1.91; W 2.33; Y 2.68
T21: A 1.36; D 1.82; E 1.47
